According to article PMC7118173 (Nature Communications, 2020):

Molecular target: the molecule itself
Experiment: negative stain electron microscopy; MtbSepFΔML 50 µM in 50 mM HEPES pH 7.4, 300 mM KCl, 10 mM MgCl2

B1: M. tuberculosis SepFΔML (domain or fragment)
chain: EDGHPLSKITTLRPKDYSEARTIGERFRDGSPVIMDLVSMDNADAKRLVDFAAGLAFALRGSFDKVATKVFLLSPADVDVSPEERRRIAETGFYAYQ
notes: also called MtbSepFΔML
**Q.** Does B1 bind?
**A.** binds
